Assay results published in patent publication US20150344540A1, “NOVEL GLP-1 RECEPTOR AGONISTS WITH CHOLESTEROL EFFLUX ACTIVITY” (NOVO NORDISK A/S, priority 2012, published 2015).
Where no end group is shown, it is not given here. [ ]: non-standard residue; d: D form. The star is where a group is joined. Desaminohistidyl = O=C(CCc1c[nH]cn1)*; Aib = CC(C)(N)C(=O)O

B1: [desamino-His7,Aib8,Glu23,Val25,Glu34,Lys35,Val36,Lys37]-GLP-1-(7-37)-peptidyl-Glu-Phe-Leu amide (peptide)
peptide: [Desaminohistidyl][Aib]EGTFTSDVSSYLEGEAVKEFIAWLVEKVKEFL-NH2
SMILES: CC[C@H](C)[C@H](NC(=O)[C@H](Cc1ccccc1)NC(=O)[C@H](CCC(=O)O)NC(=O)[C@H](CCCCN)NC(=O)[C@@H](NC(=O)[C@H](C)NC(=O)[C@H](CCC(=O)O)NC(=O)CNC(=O)[C@H](CCC(=O)O)NC(=O)[C@H](CC(C)C)NC(=O)[C@H](Cc1ccc(O)cc1)NC(=O)[C@H](CO)NC(=O)[C@H](CO)NC(=O)[C@@H](NC(=O)[C@H](CC(=O)O)NC(=O)[C@H](CO)NC(=O)[C@@H](NC(=O)[C@H](Cc1ccccc1)NC(=O)[C@@H](NC(=O)CNC(=O)[C@H](CCC(=O)O)NC(=O)C(C)(C)NC(=O)CCc1c[nH]cn1)[C@@H](C)O)[C@@H](C)O)C(C)C)C(C)C)C(=O)N[C@@H](C)C(=O)N[C@@H](Cc1c[nH]c2ccccc12)C(=O)N[C@@H](CC(C)C)C(=O)N[C@H](C(=O)N[C@@H](CCC(=O)O)C(=O)N[C@@H](CCCCN)C(=O)N[C@H](C(=O)N[C@@H](CCCCN)C(=O)N[C@@H](CCC(=O)O)C(=O)N[C@@H](Cc1ccccc1)C(=O)N[C@@H](CC(C)C)C(N)=O)C(C)C)C(C)C
B2: [Aib8,Val25,Gln27,Asn34,Lys35,Aib36,Ala37]-GLP-1-(7-37)-peptidyl-Glu-Phe-Leu amide (peptide)
peptide: H[Aib]EGTFTSDVSSYLEGQAVKQFIAWLVNK[Aib]AEFL-NH2
modifications: N-terminus assumed
SMILES: CC[C@H](C)[C@H](NC(=O)[C@H](Cc1ccccc1)NC(=O)[C@H](CCC(N)=O)NC(=O)[C@H](CCCCN)NC(=O)[C@@H](NC(=O)[C@H](C)NC(=O)[C@H](CCC(N)=O)NC(=O)CNC(=O)[C@H](CCC(=O)O)NC(=O)[C@H](CC(C)C)NC(=O)[C@H](Cc1ccc(O)cc1)NC(=O)[C@H](CO)NC(=O)[C@H](CO)NC(=O)[C@@H](NC(=O)[C@H](CC(=O)O)NC(=O)[C@H](CO)NC(=O)[C@@H](NC(=O)[C@H](Cc1ccccc1)NC(=O)[C@@H](NC(=O)CNC(=O)[C@H](CCC(=O)O)NC(=O)C(C)(C)NC(=O)[C@@H](N)Cc1c[nH]cn1)[C@@H](C)O)[C@@H](C)O)C(C)C)C(C)C)C(=O)N[C@@H](C)C(=O)N[C@@H](Cc1c[nH]c2ccccc12)C(=O)N[C@@H](CC(C)C)C(=O)N[C@H](C(=O)N[C@@H](CC(N)=O)C(=O)N[C@@H](CCCCN)C(=O)NC(C)(C)C(=O)N[C@@H](C)C(=O)N[C@@H](CCC(=O)O)C(=O)N[C@@H](Cc1ccccc1)C(=O)N[C@@H](CC(C)C)C(N)=O)C(C)C
B3: [Aib8,Glu23,Val25,Arg26,Glu34,Lys35,Aib36,Lys37]-GLP-1-(7-37)-peptidyl-Glu-Phe-Leu amide (peptide)
peptide: H[Aib]EGTFTSDVSSYLEGEAVREFIAWLVEK[Aib]KEFL-NH2
modifications: N-terminus assumed
SMILES: CC[C@H](C)[C@H](NC(=O)[C@H](Cc1ccccc1)NC(=O)[C@H](CCC(=O)O)NC(=O)[C@H](CCCNC(=N)N)NC(=O)[C@@H](NC(=O)[C@H](C)NC(=O)[C@H](CCC(=O)O)NC(=O)CNC(=O)[C@H](CCC(=O)O)NC(=O)[C@H](CC(C)C)NC(=O)[C@H](Cc1ccc(O)cc1)NC(=O)[C@H](CO)NC(=O)[C@H](CO)NC(=O)[C@@H](NC(=O)[C@H](CC(=O)O)NC(=O)[C@H](CO)NC(=O)[C@@H](NC(=O)[C@H](Cc1ccccc1)NC(=O)[C@@H](NC(=O)CNC(=O)[C@H](CCC(=O)O)NC(=O)C(C)(C)NC(=O)[C@@H](N)Cc1c[nH]cn1)[C@@H](C)O)[C@@H](C)O)C(C)C)C(C)C)C(=O)N[C@@H](C)C(=O)N[C@@H](Cc1c[nH]c2ccccc12)C(=O)N[C@@H](CC(C)C)C(=O)N[C@H](C(=O)N[C@@H](CCC(=O)O)C(=O)N[C@@H](CCCCN)C(=O)NC(C)(C)C(=O)N[C@@H](CCCCN)C(=O)N[C@@H](CCC(=O)O)C(=O)N[C@@H](Cc1ccccc1)C(=O)N[C@@H](CC(C)C)C(N)=O)C(C)C
B4: [Aib8,Glu23,Val25,Val29,Glu34,Lys35,Aib36,Lys37]-GLP-1-(7-37)-peptidyl-Glu-Phe-Leu amide (peptide)
peptide: H[Aib]EGTFTSDVSSYLEGEAVKEFVAWLVEK[Aib]KEFL-NH2
modifications: N-terminus assumed
SMILES: CC(C)C[C@H](NC(=O)[C@H](Cc1ccccc1)NC(=O)[C@H](CCC(=O)O)NC(=O)[C@H](CCCCN)NC(=O)C(C)(C)NC(=O)[C@H](CCCCN)NC(=O)[C@H](CCC(=O)O)NC(=O)[C@@H](NC(=O)[C@H](CC(C)C)NC(=O)[C@H](Cc1c[nH]c2ccccc12)NC(=O)[C@H](C)NC(=O)[C@@H](NC(=O)[C@H](Cc1ccccc1)NC(=O)[C@H](CCC(=O)O)NC(=O)[C@H](CCCCN)NC(=O)[C@@H](NC(=O)[C@H](C)NC(=O)[C@H](CCC(=O)O)NC(=O)CNC(=O)[C@H](CCC(=O)O)NC(=O)[C@H](CC(C)C)NC(=O)[C@H](Cc1ccc(O)cc1)NC(=O)[C@H](CO)NC(=O)[C@H](CO)NC(=O)[C@@H](NC(=O)[C@H](CC(=O)O)NC(=O)[C@H](CO)NC(=O)[C@@H](NC(=O)[C@H](Cc1ccccc1)NC(=O)[C@@H](NC(=O)CNC(=O)[C@H](CCC(=O)O)NC(=O)C(C)(C)NC(=O)[C@@H](N)Cc1c[nH]cn1)[C@@H](C)O)[C@@H](C)O)C(C)C)C(C)C)C(C)C)C(C)C)C(N)=O
B5: [Aib8,Glu23,Val25,Glu34,Lys35,Val36,Lys37]-GLP-1-(7-37)-peptidyl-Glu-His-Leu amide (peptide)
peptide: H[Aib]EGTFTSDVSSYLEGEAVKEFIAWLVEKVKEHL-NH2
modifications: N-terminus assumed
SMILES: CC[C@H](C)[C@H](NC(=O)[C@H](Cc1ccccc1)NC(=O)[C@H](CCC(=O)O)NC(=O)[C@H](CCCCN)NC(=O)[C@@H](NC(=O)[C@H](C)NC(=O)[C@H](CCC(=O)O)NC(=O)CNC(=O)[C@H](CCC(=O)O)NC(=O)[C@H](CC(C)C)NC(=O)[C@H](Cc1ccc(O)cc1)NC(=O)[C@H](CO)NC(=O)[C@H](CO)NC(=O)[C@@H](NC(=O)[C@H](CC(=O)O)NC(=O)[C@H](CO)NC(=O)[C@@H](NC(=O)[C@H](Cc1ccccc1)NC(=O)[C@@H](NC(=O)CNC(=O)[C@H](CCC(=O)O)NC(=O)C(C)(C)NC(=O)[C@@H](N)Cc1c[nH]cn1)[C@@H](C)O)[C@@H](C)O)C(C)C)C(C)C)C(=O)N[C@@H](C)C(=O)N[C@@H](Cc1c[nH]c2ccccc12)C(=O)N[C@@H](CC(C)C)C(=O)N[C@H](C(=O)N[C@@H](CCC(=O)O)C(=O)N[C@@H](CCCCN)C(=O)N[C@H](C(=O)N[C@@H](CCCCN)C(=O)N[C@@H](CCC(=O)O)C(=O)N[C@@H](Cc1c[nH]cn1)C(=O)N[C@@H](CC(C)C)C(N)=O)C(C)C)C(C)C
B6: [Aib8,Glu23,Val25,Arg26,Val29,Gln30,Leu33,Glu34,Lys35,Aib36,Lys37]-GLP-1-(7-37)-peptidyl-Glu-Phe-Leu amide (peptide)
peptide: H[Aib]EGTFTSDVSSYLEGEAVREFVQWLLEK[Aib]KEFL-NH2
modifications: N-terminus assumed
SMILES: CC(C)C[C@H](NC(=O)[C@H](Cc1ccccc1)NC(=O)[C@H](CCC(=O)O)NC(=O)[C@H](CCCCN)NC(=O)C(C)(C)NC(=O)[C@H](CCCCN)NC(=O)[C@H](CCC(=O)O)NC(=O)[C@H](CC(C)C)NC(=O)[C@H](CC(C)C)NC(=O)[C@H](Cc1c[nH]c2ccccc12)NC(=O)[C@H](CCC(N)=O)NC(=O)[C@@H](NC(=O)[C@H](Cc1ccccc1)NC(=O)[C@H](CCC(=O)O)NC(=O)[C@H](CCCNC(=N)N)NC(=O)[C@@H](NC(=O)[C@H](C)NC(=O)[C@H](CCC(=O)O)NC(=O)CNC(=O)[C@H](CCC(=O)O)NC(=O)[C@H](CC(C)C)NC(=O)[C@H](Cc1ccc(O)cc1)NC(=O)[C@H](CO)NC(=O)[C@H](CO)NC(=O)[C@@H](NC(=O)[C@H](CC(=O)O)NC(=O)[C@H](CO)NC(=O)[C@@H](NC(=O)[C@H](Cc1ccccc1)NC(=O)[C@@H](NC(=O)CNC(=O)[C@H](CCC(=O)O)NC(=O)C(C)(C)NC(=O)[C@@H](N)Cc1c[nH]cn1)[C@@H](C)O)[C@@H](C)O)C(C)C)C(C)C)C(C)C)C(N)=O
B7: [Aib8,Glu23,Val25,Gln30,Leu33,Glu34,Lys35,Aib36,Lys37]-GLP-1-(7-37)-peptidyl-Glu-Phe-Leu amide (peptide)
peptide: H[Aib]EGTFTSDVSSYLEGEAVKEFIQWLLEK[Aib]KEFL-NH2
modifications: N-terminus assumed
SMILES: CC[C@H](C)[C@H](NC(=O)[C@H](Cc1ccccc1)NC(=O)[C@H](CCC(=O)O)NC(=O)[C@H](CCCCN)NC(=O)[C@@H](NC(=O)[C@H](C)NC(=O)[C@H](CCC(=O)O)NC(=O)CNC(=O)[C@H](CCC(=O)O)NC(=O)[C@H](CC(C)C)NC(=O)[C@H](Cc1ccc(O)cc1)NC(=O)[C@H](CO)NC(=O)[C@H](CO)NC(=O)[C@@H](NC(=O)[C@H](CC(=O)O)NC(=O)[C@H](CO)NC(=O)[C@@H](NC(=O)[C@H](Cc1ccccc1)NC(=O)[C@@H](NC(=O)CNC(=O)[C@H](CCC(=O)O)NC(=O)C(C)(C)NC(=O)[C@@H](N)Cc1c[nH]cn1)[C@@H](C)O)[C@@H](C)O)C(C)C)C(C)C)C(=O)N[C@@H](CCC(N)=O)C(=O)N[C@@H](Cc1c[nH]c2ccccc12)C(=O)N[C@@H](CC(C)C)C(=O)N[C@@H](CC(C)C)C(=O)N[C@@H](CCC(=O)O)C(=O)N[C@@H](CCCCN)C(=O)NC(C)(C)C(=O)N[C@@H](CCCCN)C(=O)N[C@@H](CCC(=O)O)C(=O)N[C@@H](Cc1ccccc1)C(=O)N[C@@H](CC(C)C)C(N)=O

Biological target: human GLP-1 receptor (human, UniProt P43220)
Assay: cell-based or functional assay

| Binder | CRE luciferase EC50, 0% HSA | CRE luciferase EC50, 1% HSA |
| --- | --- | --- |
| B1 | 0.886 nM | 0.242 nM |
| B2 | 0.235 nM | 0.109 nM |
| HGEGTFTSDVSSYLEGEAVKEFIAWLVEKVKEHL-NH2 [[Gly8,Glu23,Val25,Glu34,Lys35,Val36,Lys37]-GLP-1-(7-37)-peptidyl-Glu-His-Leu amide] | 0.337 nM | 0.096 nM |
| B3 | 0.076 nM | 0.028 nM |
| B4 | 0.111 nM | 0.036 nM |
| B5 | 0.089 nM | 0.116 nM |
| B6 | 0.094 nM | 0.029 nM |
| HGEGTFTSDVSSYLEGEAVKEFIAWLVEKVKEFL-NH2 [[Gly8,Glu23,Val25,Glu34,Lys35,Val36,Lys37]-GLP-1-(7-37)-peptidyl-Glu-Phe-Leu amide] | 6.08 nM | 1.38 nM |
| B7 | 0.238 nM | 0.061 nM |
